Laboratory results as given in the DeepSol protein solubility set.

Assay: soluble on expression in E. coli; label from the status in PepcDB or PDB records

Sequence | soluble on expression in E. coli
MKKFFMASLLGSAIALCTTAMAASTDLKALEDAARKEGTVNSVGMPDAWANWKGTWEDLASKYGLKHSDTDMSSAQELAKFEAEKDNASADIGDVGAAFGPIAVTKGVSQPYKPSTWDQVPEWAKDKDGHWALAYTGTIAFIINKDLVKEEERPKTWHDLEKGKYKVAIGDVGTAAQAANGVLAAAIAYKGDESNVAPGLQLFTKLAQQKRLSLANPTIQTLEKGEVEVGVVWDFNGLSYREQIDPKRFEVLIPSDGSVISGYTTVINKYAKHPNAAKLTREYIFSDAGQINLAKGHARPIRAEHLKLPADVQAKLLPNDQYAAAQPIKNAEAWEATSKKLPQMWQEQVIIEME | not soluble
MRYGFMKVAAAVPFVKVADCEYNIERIDRMVHEADAKGVEIMTFPELSITGYSCGDLFFQPFLQERANEALCRLVEQTANTTVMVIVGMPLRVEEKLFNSAVVFQQGKILGAIPKTYLPNYREFQEARWFSPAHTLQYSTISIGQHSVPIGRNLIFKCGTVGVGIEICEDMWTPFTPGTRLCLYGAEVIFNLSSSNENAGKHSYLRSLISGLSSQGICAYVYASSGYGESSTDIVFTGKAFIAEAGEIVEEMERFRYEERMIISDIDVSRIQTERLINSSFKAAVTFHTHDEKFNQLPFKLRSRQESLPMTRRVDRNPFMPEDKDRKERSREMINIQVCGLMQRLLHMGAEHAVIGISGGLDSALALIVCAQAFDRLDLPRKNIIAVTMPGFGTSDRTYRNAFALMEAIGVTIKEIDIKEACLRHFEAIGHNPEVQDTTFENTQARERTQILMNLANIYNAPVIGTGDLSELALGWVTYNGDHMSMYAVNAGIAKTTVQILVDHIAHSGWLDEAASAVLLDIVRTPISPELKPVGQLEHHHHHH | not soluble
MGSDKIHHHHHHMTRSVLVDLDAVLSIARLGSFRAAALDLGMSTTALSNAIAKLEQRLGVRLFNRTTRSVSLTDAGKTFAERVGPAMMDIHDAMLSVQSLQETPAGTLRINAFATAAREVMEPLILSFMQRYPQVHIDLVTEGRIVDIVAAGFDLGLRPADLVPADMIAVSLGLKRSNAVVASPDFLRIHGIPTVPADLYRFRCIRARLPNNALFRWKFEKDGDAMQIDVQGSITLDESSLVRIAAQNGVGLGYVMEADVREDIAAGRLVRVLEDWTPALAPLALYYPGRKNPPAAFSAFIQAARNFANGG | not soluble
GSYTLSEKDLKELDSIRDSFQCMNEPLDNDQQASTLAKKEHNPTDILNVMDITMRRLVKMAKRLGAFNEISEAGKFSLLKGGMIEMLTIRGVTVFNADKGVWQTPVDGHSQISFNMFDKLRPDIKDTQKKGFLHFFNLLHSDVRKNDLAIDIIVLMVLFDSKREGLVSQQDKETVEKLHRNYESLLHRYLYSIHKEEAEQRFASIPKALVALRKVAENAVTLFLGAGNTTEAASLPKEFFATNY | soluble
MKGLKERQDRRLGAFLGLAVGDALGAQVEGLPKGTFPEVREMKGGGPHRLPPGFWTDDTSQALCLAESLLQRGFDPKDQMDRYLRWYREGYRSATGVCFGLGHATRRALERYAATGDPYAGDEAGAGNGPLMRLAPLVLAYENHPDLLSLARRAARTTHGAREALEATEVLAWLLREALRGAPKEALLALEPFRGADLHPALRRVVEGGFWEAPEEGPGYAPGTLAAALWAFARGRDFEEGMRLAVNLGGDADTVGAVYGQLAGAYYGLGAIPGRWLRALHLREEMEALALALYRMSMASPRE | soluble
MQVSIVNEHKYRELEPLNEMLVKRGGVKMIPEPKFVISGLVDNEEYVIKLRIDLADEFRYSYQNQQWTPFAPSTKNSKLSAITETEHRKETGATWNMRIVQFDKLLITREFNDIQRNVIHVEPNHKYIPVLTIQNVTTGKSTEFQFQQMEFIAVKSYQSARIRHTKRAPRKMNLAPGSSQKPQLIVPDILHSPTYGFTAAPPPFPFEYWLLYPQIQYQIQQLAYSLPMGPPMVPIHHIQCTEASQRVYAPEYGWNSILMPGAHKEQDDHYMFHHEIWAPQDHELEKLHVLTEQKNKPSETPQ | not soluble
NIEQGLYAMLGVYVSSKTIDVVQVGFNRSKMALIITKQEQAVKEAVLQKIDRGVTKISAVGGYTDDDRPILMCVVGQTEFTKLKQIVKQIDESAFVIVADASEVLGEGFKRA | not soluble
MGSDKIHHHHHHMKVFITGGTGFVGSAVVQELVANGFEVVGLARSETSAQKLISWGAQPVRGSLTSLSTLATAAAQADAIIHLGFNNDFRHFFQAGAMDRRAIETMGRAISGTNKPLVVTYGTTGIRKHVETEHEVADTGLLKWLTPRKSEIVARQLMAQNINAFVVRLSPAVHGAGDMGFTRTVIERAKKSHRAEYFGLGTHAWSAVHRLDAAHLFYLVTMYGLEHPTTNERVFNAVAEESITIAAIARTISRKLNVPLKAKYNPLSFGDTAMLYLINCPTSSQLTRQILGWVPVQPDLLTDISSSRY | not soluble
MAHHHHHHMEENNQVEKNKTNQLCFVKMLVNNLVAGSVIGKNGSIITSIENKTGCSLKLSPTNSYFPNTQERVLVLCGKQEQINNALLIILDKIRQITVQSFQDKQNMNTVPKYTCRIVIPKSAASAIIGKGGQQIKQLQDSTGAKIQISSREDGLNERIISIIGPFESISDTAIKVTNSIQNDPNLKDLLNVIYNKDTNMNGRSSLSQNFVNQVPLNGYVVPQQYGVFQHEQYMDVNMMNSLMRHSRDLFNLPCEISIQI | not soluble
MSLKNQWNNILSIGEKVLNGEKITADEALTLSKSNGSDIFLLCSFANKLREKFNGNHVDLCSVINAKSGNCSEDCAFCAQSAHHKANVSCYPLLNEDKILEMAKQREAYGARHCDIATSGLGYTGDEKDFQTILKAFKKMKENTNLKLCACLGTLTEKAMNSLAAVGVERYNHNLETAKSFYKNIVSTHGYDERIKTINYAKNAKMEVCSGMIVGLGETMEQRIEHALLLRDLNVDAVPVNILNPVKGTKLENAKPLSPMEIIKTFAIIRFILPDKIIRYAGGREKNLRSLQPLGFLSGLNGMLIGNYLTTNGQSVNDDFNMLKDLELEYEGHHHHHH | soluble
MAGDPMNEQSQAKSPDTLRAMVAGTLANFQHPTLKHNLTTLKALHHVAWMDDTLHVELVMPFVWNSAFEVLKEQCSADLLRITGAKAIDWKLSYNIATLKRVKNQPGINGVKNIIAVSSGKGGVGKSSTAVNLALALAAEGAKVGVLDADIYGPSIPTMLGAEDQRPTSPDGTHMAPIMSHGLATNSIGYLVTDDNAMVWRGPMASKALMQMLQETLWPDLDYLVLDMPPGTGDIQLTLAQNIPVTGAVVVTTPQDIALIDAKKGIVMFEKVEVPVLGIVENMSMHICSNCGHHEPIFGTGGAQKLAEKYHTQLLGQMPLHISLREDLDRGTPTVVSRPESEFTAIYRELADRVAAQLYWQGEVIPGEIAFRAVLEHHHHHH | soluble
MGSDKIHHHHHHMSDPAGKPCIICVAITGSLPTKENNPAVPITLAEQVESTHEAFEAGASIAHCHVRDDEGRPTSDPDRFAALKEGLERHCPGMIVQLSTGGRSGAGQARGAMLPLCPDMASLSVGSNNFPTRVYENPPDLVDWLAAEMLKYDIKPEIEAFDLSHILQAKRMAGDGRLAGTPYVQFVMGVRNAMPADRDVFDYYIHTVRRLFGEDAPWCAAGIGPSQIVLNEWAISSGGHARTGLEDNVRLDRDRLAPSNAALVGRAVELCEKYERPVATWRQARQILGLRMV | not soluble
MTSKTSESGTGTQSTIVQLRNLPDLTEISHLEIDAPVVEILKKTVLFQLNSLNICISNFALDELVNLVTVQMDGMFRNLHNLTLLQRRSQASQADLKLLLREFNLDAPSLYQQFQASEFIKSKHSTEYEKLMSWSSLAALPHNEEDEEDELNNIEEQQNEINVLLPPSNPLEKQIPSWLPNFPPDHTYKFTPEFNHPITDLKTIKKEIVKESQESEKALLNLNKSLSHISSASNTPQPPGLDDEDAIEQQLEIWGNALEERKPTITEKSFNENNIEQYAKYRVELARERVTKFEVNQLKRTKNPFLKISETLYLPESPHQSHKTIQKTIELQFRKSMTLFMHNLPKVQKLKKEKIRMAKEERAKSLKRRQEELISQRTKREQDEGHDLELLLNNEHARDAADDTTTPNALNNSTIVINTNAEDEDDDINLFGILGSSEDENEMSSMPAENLVAESEPPTMTAQDTTNTTPVAHNTTNIDATTSHSPHSTPNENAPTSPPADIATDHDITM | soluble
MKQKVVSIGDINVANDLPFVLFGGMNVLESRDLAMRICEHYVTVTQKLGIPYVFKASFDKANRSSIHSYRGPGLEEGMKIFQELKQTFGVKIITDVHEPSQAQPVADVVDVIQLPAFLARQTDLVEAMAKTGAVINVKKPQFVSPGQMGNIVDKFKEGGNEKVILCDRGANFGYDNLVVDMLGFSIMKKVSGNSPVIFDVTHALQCRDPFGAASGGRRAQVAELARAGMAVGLAGLFIEAHPDPEHAKCDGPSALPLAKLEPFLKQMKAIDDLVKGFEELDTSK | soluble
SLINNLSTHSYWPNRGQLEVQGLTVKYTEAGRAVLNDISFSVDGGQSVGLLGRTGSGKSTLLSALLGLNYTEGEMFIDGVSSSSMPLQAWRKAFGVVPQKVFILTGTFRMNLDPYGRYSDDELWRVAEEVGLKSVIEQFPDKLDFELKDGGSVLSNGHKQLMCLARSILSKARILLLDEPSSYLDPITLQVLRKTLKQSFSGCTVILSEAKVEPLLECDSFLMIEKSSVKSYDSIQKLMNEMSHLKQAISPAD | soluble
MGSDKIHHHHHHMSTKPFVYQDPFPLGKDETKYRKIEGSEKHVTVEQFAGKEVLRVCPEALSILANEAMRDVSFLLRPEHNESVAKILRDPEASMNDKGVALAFLRNAEISANFELPICQDTGTATVIAKKGQQVWTGGKDEEYLSKGVYKTYTEENLRYSQTVALNMYDEINTGTNLPAQVEIQAVDGDAYKFLFMAKGGGSANKTMLFQETKALLTPEKLEKFLVDKMKYLGTAACPPYHIAVVVGGCSADQCMKTVKLASAKYLDALPTQGNEHGQAFRDVELEEKLLQAAYKLGIGAQFGGKYFAHDVRVIRLPRHGASCPVGMAVSCSADRNIKAKITRDGLFVEELDRNPGRLIPEQYRGKHEHGVKIDLNRPMKEILAELSKYPVATPLLLNGTIVVGRDIAHAKFKEIIDAGKPVPEYLLNHPIYYAGPAKTPAGKPSGSFGPTTAGRMDSYVDLLQSKGASMIMIAKGNRSQQVTDACQKYGGFYLGSIGGPAAVLAEENIKKVECIDFPELGMEAVWKIEVENFPAFILVDDKGNDFFKQLGL | not soluble
MRFVMPGDRIGSAEEYVKGEGVYEEGGELFAAVAGKLIIKDRVAKVESISPIPEIVKGDVVLGRVVDLRNSIALIEVSSKKGENRGPSNRGIGILHVSNVDEGYVKEISEAVGYLDILKARVIGDNLRLSTKEEEMGVLRALCSNCKTEMVREGDILKCPECGRVEKRKISTDYGKGEW | soluble
MNSNYKRYKMLVFDLDGTLLNNNHEIAFLTLEVLLALKEDFKIIIATGRRLSEVKNIRSQLKEISINENYLVTANGAEVFLQENLIFRYAMNYDLAKEILKINTDNVDVNLYTFDTWYSNADVKSPIMKHFIKDLGLNVIIGDLTKLNVDSVSKIVYYCDDLAILNKLDTEIKSKDFQDTRVFFSSKDLLEVTNINANKYNAIKNIAFLESIPLCDVLAFGDNNNDYEMLKNLGKGVLMKNANEFLKINLAKNEITRFSNNEDGVARFLIDFFKLNIKY | not soluble
TVEAKNETFAPQHPDQYLSWKATSEQSERVDALAEDPRLVILWAGYPFSRDYNKPRGHAFAVTDVRETLRTGAPKNAEDGPLPMACWSCKSPDVARLIQKDGEDGYFHGKWARGGPEIVNNLGCADCHNTASPEFAKGKPELTLSRPYAARAMEAIGKPFEKAGRFDQQSMVCGQCHVEYYFDGKNKAVKFPWDDGMKVENMEQYYDKIAFSDWTNSLSKTPMLKAEHPEYETWTAGIHGKNNVTCIDCHMPKVQNAEGKLYTDHKIGNPFDNFAQTCANCHTQDKAALQKVVAERKQSINDLKIKVEDQLVHAHFEAKAALDAGATEAEMKPIQDDIRHAQWRWDLAIASHGIHMHAPEEGLRMLGTAMDKAADARTKLARLLATKGITHEIQIPDISTKEKAQQAIGLNMEQIKAEKQDFIKTVIPQWEEQARKNGLLS | soluble
